T1: His-tagged lamin A/C 1-300 fragment, Y45C (human), P02545
T1 chain: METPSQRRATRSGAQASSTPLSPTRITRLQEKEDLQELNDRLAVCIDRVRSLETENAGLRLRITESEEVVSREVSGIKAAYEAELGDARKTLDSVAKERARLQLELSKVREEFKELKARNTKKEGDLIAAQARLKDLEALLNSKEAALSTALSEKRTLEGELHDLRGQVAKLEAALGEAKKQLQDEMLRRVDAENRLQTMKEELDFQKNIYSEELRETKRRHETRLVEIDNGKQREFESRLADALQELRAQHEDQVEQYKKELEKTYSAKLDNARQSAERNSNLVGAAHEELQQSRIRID

B1: lamin A/C 250-400 fragment, wild type, tag-free (domain or fragment, human, UniProt P02545 250-400, looked up)
chain: AQHEDQVEQYKKELEKTYSAKLDNARQSAERNSNLVGAAHEELQQSRIRIDSLSAQLSQLQKQLAAKEAKLRDLEDSLARERDTSRRLLAEKEREMAEMRARMQQQLDEYQELLDIKLALDMEIHAYRKLLEGEEERLRLSPSPTSQRSRG
notes: lamin A/C, human, residues 250-400 (C-terminal part of coil 2); His-tag cleaved with TEV protease; also called lamin 250-400; coil 2 fragment; source: E. coli BL21 (DE3), purified (cobalt-Talon, TEV cleavage, HiTrap Q, SEC); not shown: His-tag, N-terminal, cleaved
B2: His-tagged lamin A/C 1-300 fragment, wild type (domain or fragment, human, UniProt P02545 1-300, looked up)
chain: METPSQRRATRSGAQASSTPLSPTRITRLQEKEDLQELNDRLAVYIDRVRSLETENAGLRLRITESEEVVSREVSGIKAAYEAELGDARKTLDSVAKERARLQLELSKVREEFKELKARNTKKEGDLIAAQARLKDLEALLNSKEAALSTALSEKRTLEGELHDLRGQVAKLEAALGEAKKQLQDEMLRRVDAENRLQTMKEELDFQKNIYSEELRETKRRHETRLVEIDNGKQREFESRLADALQELRAQHEDQVEQYKKELEKTYSAKLDNARQSAERNSNLVGAAHEELQQSRIRID
notes: lamin A/C, human, residues 1-300 (N-terminal head, coil 1a, L1, coil 1b and following residues); pProEx-HTa vector: a TEV protease cleavage site stands between the His-tag and the lamin residues; also called lamin 300 fragment; His-lamin 1-300 WT; source: E. coli BL21 (DE3), purified (cobalt-Talon, HiTrap Q, SEC); not shown: His-tag, N-terminal, kept
B3: His-tagged lamin A/C 1-300 fragment, I63S (domain or fragment, human, UniProt P02545 1-300, looked up)
chain: METPSQRRATRSGAQASSTPLSPTRITRLQEKEDLQELNDRLAVYIDRVRSLETENAGLRLRSTESEEVVSREVSGIKAAYEAELGDARKTLDSVAKERARLQLELSKVREEFKELKARNTKKEGDLIAAQARLKDLEALLNSKEAALSTALSEKRTLEGELHDLRGQVAKLEAALGEAKKQLQDEMLRRVDAENRLQTMKEELDFQKNIYSEELRETKRRHETRLVEIDNGKQREFESRLADALQELRAQHEDQVEQYKKELEKTYSAKLDNARQSAERNSNLVGAAHEELQQSRIRID
notes: lamin A/C, human, residues 1-300 with the EDMD mutation I63S; pProEx-HTa vector: a TEV protease cleavage site stands between the His-tag and the lamin residues; also called His-lamin 1-300 I63S; lamin 300 I63S; source: E. coli BL21 (DE3), purified (cobalt-Talon, HiTrap Q, SEC); not shown: His-tag, N-terminal, kept
B4: His-tagged lamin A/C 1-300 fragment, L35V (domain or fragment, human, UniProt P02545 1-300, looked up)
chain: METPSQRRATRSGAQASSTPLSPTRITRLQEKEDVQELNDRLAVYIDRVRSLETENAGLRLRITESEEVVSREVSGIKAAYEAELGDARKTLDSVAKERARLQLELSKVREEFKELKARNTKKEGDLIAAQARLKDLEALLNSKEAALSTALSEKRTLEGELHDLRGQVAKLEAALGEAKKQLQDEMLRRVDAENRLQTMKEELDFQKNIYSEELRETKRRHETRLVEIDNGKQREFESRLADALQELRAQHEDQVEQYKKELEKTYSAKLDNARQSAERNSNLVGAAHEELQQSRIRID
notes: lamin A/C, human, residues 1-300 with the EDMD mutation L35V; pProEx-HTa vector: a TEV protease cleavage site stands between the His-tag and the lamin residues; also called His-lamin 1-300 L35V; lamin 300 L35V; source: E. coli BL21 (DE3), purified (cobalt-Talon, HiTrap Q, SEC); not shown: His-tag, N-terminal, kept
B5: His-tagged lamin A/C 1-300 fragment, L59R (domain or fragment, human, UniProt P02545 1-300, looked up)
chain: METPSQRRATRSGAQASSTPLSPTRITRLQEKEDLQELNDRLAVYIDRVRSLETENAGRRLRITESEEVVSREVSGIKAAYEAELGDARKTLDSVAKERARLQLELSKVREEFKELKARNTKKEGDLIAAQARLKDLEALLNSKEAALSTALSEKRTLEGELHDLRGQVAKLEAALGEAKKQLQDEMLRRVDAENRLQTMKEELDFQKNIYSEELRETKRRHETRLVEIDNGKQREFESRLADALQELRAQHEDQVEQYKKELEKTYSAKLDNARQSAERNSNLVGAAHEELQQSRIRID
notes: lamin A/C, human, residues 1-300 with the CDM1A mutation L59R; pProEx-HTa vector: a TEV protease cleavage site stands between the His-tag and the lamin residues; also called His-lamin 1-300 L59R; lamin 300 L59R; source: E. coli BL21 (DE3), purified (cobalt-Talon, HiTrap Q, SEC); not shown: His-tag, N-terminal, kept

Experiments:
[1] = biological target: T1, His-tagged lamin A/C 1-300 fragment, …; assay: ITC; His-tagged lamin 300 fragments in the cell (25 uM), TEV-cleaved lamin 250-400 in the syringe (180 uM); PBS; 25 °C; 19 injections of 2 uL; settings: remark: other sources report otherwise
[2] = biological target: B4; assay: as above; settings: both partners purified
[3] = biological target: B3; assay: as above; settings: both partners purified
[4] = biological target: B5; assay: as above; settings: both partners purified
[5] = biological target: B2; assay: pull-down; His-tagged lamin 1-300 variants on Ni-NTA resin as bait, tag-free lamin 250-400 as prey; 20 mM Tris-HCl pH 8.0 with 50 mM or 150 mM NaCl; room temperature 30 min; SDS-PAGE; settings: both partners purified
[6] = biological target: B1; assay: pull-down; His-tagged lamin 1-125 variants on Ni-NTA resin as bait, lamin 250-400 as prey; 20 mM Tris-HCl pH 8.0 with 50 mM NaCl; SDS-PAGE; settings: both partners purified
[7] = biological target: the molecule itself; assay: not stated; purified lamin 300 fragments in solution; how the dimeric state was found is not told

binding result [6]	Binder	stoichiometry N [7]	further results
	B1		fold decrease of the interaction (KD) against wild type [1]: 5 fold; fold decrease of the interaction (KD) against wild type [2]: ~2 fold; fold increase of the interaction (KD) against wild type [3]: ~2 fold; fold increase of the interaction (KD) against wild type [4]: ~56 fold; binding result [5]: binds
binds	His-tagged lamin A/C 1-125 fragment, L59R (domain or fragment, human, UniProt P02545 1-125, looked up, pProEx-HTa vector: a TEV protease cleavage site stands between the His-tag and the lamin residues; also called His-lamin 1-125 L59R; source: E. coli BL21 (DE3), purified (cobalt-Talon, HiTrap Q, SEC); not shown: His-tag, N-terminal, kept) METPSQRRATRSGAQASSTPLSPTRITRLQEKEDLQELNDRLAVYIDRVRSLETENAGRRLRITESEEVVSREVSGIKAAYEAELGDARKTLDSVAKERARLQLELSKVREEFKELKARNTKKEG		
binds	His-tagged lamin A/C 1-125 fragment, Y45C (domain or fragment, human, UniProt P02545 1-125, looked up, pProEx-HTa vector: a TEV protease cleavage site stands between the His-tag and the lamin residues; source: E. coli BL21 (DE3), purified (cobalt-Talon, HiTrap Q, SEC); not shown: His-tag, N-terminal, kept) METPSQRRATRSGAQASSTPLSPTRITRLQEKEDLQELNDRLAVCIDRVRSLETENAGLRLRITESEEVVSREVSGIKAAYEAELGDARKTLDSVAKERARLQLELSKVREEFKELKARNTKKEG		
binds	His-tagged lamin A/C 1-125 fragment, I63S (domain or fragment, human, UniProt P02545 1-125, looked up, pProEx-HTa vector: a TEV protease cleavage site stands between the His-tag and the lamin residues; source: E. coli BL21 (DE3), purified (cobalt-Talon, HiTrap Q, SEC); not shown: His-tag, N-terminal, kept) METPSQRRATRSGAQASSTPLSPTRITRLQEKEDLQELNDRLAVYIDRVRSLETENAGLRLRSTESEEVVSREVSGIKAAYEAELGDARKTLDSVAKERARLQLELSKVREEFKELKARNTKKEG		
	B2	2	
	B3	2	
	B4	2	
	B5	2	
	His-tagged lamin A/C 1-300 fragment, Y45C (domain or fragment, human, UniProt P02545 1-300, looked up, lamin A/C, human, residues 1-300 with the EDMD mutation Y45C; pProEx-HTa vector: a TEV protease cleavage site stands between the His-tag and the lamin residues; also called His-lamin 1-300 Y45C; lamin 300 Y45C; source: E. coli BL21 (DE3), purified (cobalt-Talon, HiTrap Q, SEC); not shown: His-tag, N-terminal, kept) METPSQRRATRSGAQASSTPLSPTRITRLQEKEDLQELNDRLAVCIDRVRSLETENAGLRLRITESEEVVSREVSGIKAAYEAELGDARKTLDSVAKERARLQLELSKVREEFKELKARNTKKEGDLIAAQARLKDLEALLNSKEAALSTALSEKRTLEGELHDLRGQVAKLEAALGEAKKQLQDEMLRRVDAENRLQTMKEELDFQKNIYSEELRETKRRHETRLVEIDNGKQREFESRLADALQELRAQHEDQVEQYKKELEKTYSAKLDNARQSAERNSNLVGAAHEELQQSRIRID	2	
